These results are taken from PMC2671838.

In this assay the target is Porphyromonas gingivalis heme-binding protein HmuY, heme-bound form (holo-HmuY) (Porphyromonas gingivalis). Put plainly: crystal structure; holo-HmuY (heme-bound), sitting-drop vapor diffusion at 20°C, 26 mg/mL protein in 5 mM Tris/HCl pH 8.0, reservoir 2.4 M (NH4)2SO4, 0.1 M MES pH 6.0; tetragonal crystals, one dimer per asymmetric unit; tetramer created by a local and a crystallographic two-fold axis.

For the substance “Porphyromonas gingivalis heme-binding protein HmuY, heme-bound form (holo-HmuY) (natural protein)”, the stoichiometry N was found to be 4.
